Article PMC6107515, “Factor H binding proteins protect division septa on encapsulated Streptococcus pneumoniae against complement C3b deposition and amplification” (Nature Communications, 2018)

Legend:
[1] = target: T1, human complement Factor H (human, UniProt P08603 19-1231); assay: SPR; Biacore X100; FH coupled to a CM4 chip, recombinant PspCs injected at five increasing concentrations (kinetic titration); PBS-P+ buffer; fitted with a 1:1 binding model; details: both partners purified
T1 construct: complement factor H, human, purified; also called FH

[2] = target: T1, human complement Factor H; assay: as above; details: both partners purified; remark: listed apart in the source

T1 sequence (P08603 19-1231): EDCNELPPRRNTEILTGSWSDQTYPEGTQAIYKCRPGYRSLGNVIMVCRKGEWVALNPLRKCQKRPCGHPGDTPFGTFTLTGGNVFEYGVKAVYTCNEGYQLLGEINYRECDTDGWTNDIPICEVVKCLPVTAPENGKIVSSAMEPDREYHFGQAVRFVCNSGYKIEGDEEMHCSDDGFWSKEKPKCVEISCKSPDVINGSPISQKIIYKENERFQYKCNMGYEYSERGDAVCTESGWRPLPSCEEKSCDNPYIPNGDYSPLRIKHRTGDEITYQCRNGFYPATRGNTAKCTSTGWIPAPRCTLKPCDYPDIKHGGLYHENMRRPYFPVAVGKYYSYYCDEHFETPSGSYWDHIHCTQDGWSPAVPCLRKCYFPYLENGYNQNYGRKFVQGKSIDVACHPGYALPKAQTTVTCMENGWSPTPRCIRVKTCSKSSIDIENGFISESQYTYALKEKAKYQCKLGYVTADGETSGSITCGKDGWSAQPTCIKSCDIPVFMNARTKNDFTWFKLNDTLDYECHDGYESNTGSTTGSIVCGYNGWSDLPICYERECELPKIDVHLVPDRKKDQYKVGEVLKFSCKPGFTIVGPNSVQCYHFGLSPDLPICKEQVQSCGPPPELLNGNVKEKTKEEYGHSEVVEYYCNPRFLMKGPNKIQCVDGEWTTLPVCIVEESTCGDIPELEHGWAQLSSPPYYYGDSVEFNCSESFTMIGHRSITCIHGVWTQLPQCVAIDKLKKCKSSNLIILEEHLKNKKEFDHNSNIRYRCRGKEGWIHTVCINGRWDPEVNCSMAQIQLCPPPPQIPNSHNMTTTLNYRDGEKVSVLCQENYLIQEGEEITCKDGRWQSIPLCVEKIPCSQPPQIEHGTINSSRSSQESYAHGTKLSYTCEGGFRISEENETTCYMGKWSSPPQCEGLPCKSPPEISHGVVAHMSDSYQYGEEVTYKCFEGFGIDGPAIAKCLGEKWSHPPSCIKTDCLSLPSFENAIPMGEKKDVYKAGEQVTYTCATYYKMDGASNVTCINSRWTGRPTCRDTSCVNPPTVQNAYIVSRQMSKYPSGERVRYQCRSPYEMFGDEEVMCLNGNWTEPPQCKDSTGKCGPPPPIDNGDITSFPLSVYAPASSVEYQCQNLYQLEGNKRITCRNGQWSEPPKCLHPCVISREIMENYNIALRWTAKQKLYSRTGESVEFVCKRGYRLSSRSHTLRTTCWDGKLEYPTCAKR

B1: recombinant PspC1 (BHN418) (domain or fragment)
chain: EEVGGRNTPTVTSSGQDISKKYADEVESHLKKILSEIQTQLDRKRHTKTVALINELQDIKKTYLYNLNVLKEKSELPSKIKAKLEVAFDQFKKDTLKPGEKVAEAEKKVAEAKKKAEDQKEEDRRNYPTNTYKTLELEIAESDVKVKEAELELVNEEAKPGNEEKIKKAKAKVESEKAEAIRLEEIKTDREEAKRKADAKLKEAVENNAATSEQGEPKRRVKRGVLGEPATPDKKENDAKSSDSSVGEETLPSPSLKPEKKVAEAEKKAKDQKEEDRRNYPTNTYKTLELEIAESDVKVKEAELELVKEEAKESRNEEKVKQAKAKVESKKAEATRLEKIKTDRKKAEEAKRKAAEEDKVKEKPAEQPQPAPAPQPEKPAPKPEKPAPAPKPENPAEQPKAEKPADQQAEEDYARRSEEEYNRLTQQQPPKTEKPAQPSTPKTGWKQENGMWYFYNTDGSMA
- Kd [1]: 0.0908 nM
- Kd [2]: 0.09 nM
- koff [2]: 6.2e-05 s⁻¹
- kon [2]: 690000 M⁻¹ s⁻¹

B2: recombinant PspC2 (BHN418) (domain or fragment)
chain: TEKEGSTQAATSFNRGNGSQAEQRGELDLERDKAMKAVSEYVGKMVRDAYVKSDRKRHKNTVALVNQLGNIKNRYLNEIVHSTSKSQLQELMMKSQSEVDEAVSKFEKDSFSSSSSGSSTKPETPQPENPEHQKPTTPSPDTKPSPQPEGKKPSVPDINQEKEKAKLAVVTYMSKILDDIQKHHLQKEKHRQIVALIKELDELKKQALSEIDNVNTKVEIENTVHKIFADMDAVVTKFKKGLTQDTPKEPGNKKPSAPKPGMQPSPQPEVKPQLEKPKPEVKPQPEKPKPEVKPQPEKPKPEVKPQPEKPKPEVKPQPEKPKPEVKPQPEKPKPEVKPQPEKPKPEVKPQPEKPKPEVKPQPEKPKPEVKPQPEKPKPEVKPQPEKPKPEVKPQPEKPKPEVKPQPEKPKPEVKPQPEKPKPEVKPQPEKPKPEVKPQPEKPKPEVKPQPEKPKPEVKPQPEKPKPEVKPQPEKPKPEVKPQPEKPKPDNSKPQADDKKPSTTNNLSKDKQPSNQASTNEKATNKPKK
notes: PspC2 of Streptococcus pneumoniae BHN418, lacking the LPxTG motif and the first 37 aa (signal peptide); whole precursor given in Supplementary Data 1; cloned NdeI/XhoI in pET28a; source: E. coli Rosetta (DE3), purified (Ni-NTA, thrombin, Ni-NTA, Superdex 75); not shown: 6xHis, N-terminal, cleaved
- Kd [2]: 0.013 nM
- koff [2]: 5.5e-05 s⁻¹
- kon [2]: 4.1e+06 M⁻¹ s⁻¹
